Measured values reported in patent publication US11708423B2, “Chimeric engulfment receptor molecules and methods of use” (CERO THERAPEUTICS, INC., priority 2017, dated 2023).

B1: CER29−HPV16 E7 TCR: tandem expression cassette: CER29, T2A peptide, HPV16 E7 specific TCR; SEQ ID NO:169 (protein)
chain: MSKGLLLLWLVTELWWLYLTPAASEDTIIGFLGQPVTLPCHYLSWSQSRNSMCWGKGSCPNSKCNAELLRTDGTRIISRKSTKYTLLGKVQFGEVSLTISNTNRGDSGVYCCRIEVPGWFNDVKKNVRLELRRATTTKKPTTTTRPTTTPYVTTTTPELLPTTVMTTSVLPTTTPPQTLATTAFSTAVTTCPSTTPGSFSQETTKGSAFTTESETLPASNHSQRSMMTISTDIAVLRPTGSNPGILPSTSQLTTQKTTLTTSESLQKTTKSHQINSRQTILIIACCVGFVLMVLLFLAFLMSLLNCENSCGSSQSESDCCVAMASSCSAVTKDDSVGGTASTGNLSSSFMEEIQGYDVEFDPPLESKYECPICLMALREAVQTPCGHRFCKACIIKSIRDAGHKCPVDNEILLENQLFPDNFAKREILSLMVKCPNEGCLHKMELRHLEDHQAHCEFALMDCPQCQRPFQKFHINIHILKDCPRRQVSCDNCAASMAFEDKEIHDQNCPLANVICEYCNTILIREQMPNHYDLDCPTAPIPCTFSTFGCHEKMQRNHLARHLQENTQSHMRMLALEGGGEGRGSLLTCGDVEENPGPMAPGLLCWALLCLLGAGLVDAGVTQSPTHLIKTRGQQVTLRCSPKSGHDTVSWYQQALGQGPQFIFQYYEEEERQRGNFPDRFSGHQFPNYSSELNVNALLLGDSALYLCASSLGWRGGRYNEQFFGPGTRLTVLEDLRNVTPPKVSLFEPSKAEIANKQKATLVCLARGFFPDHVELSWWVNGKEVHSGVCTDPQAYKESNYSYCLSSRLRVSATFWHNPRNHFRCQVQFHGLSEEDKWPEGSPKPVTQNISAEAWGRADCGITSASYQQGVLSATILYEILLGKATLYAVLVSTLVVMAMVKRKNSRAKRSGSGATNFSLLKQAGDVEENPGPMWGVFLLYVSMKMGGTTGQNIDQPTEMTATEGAIVQINCTYQTSGFNGLFWYQQHAGEAPTFLSYNVLDGLEEKGRFSSFLSRSKGYSYLLLKELQMKDSASYLCASVDGNNRLAFGKGNQVVVIPNIQNPEPAVYQLKDPRSQDSTLCLFTDFDSQINVPKTMESGTFITDKCVLDMKAMDSKSNGAIAWSNQTSFTCQDIFKETNATYPSSDVPCDATLTEKSFETDMNLNFQNLLVIVLRILLLKVAGFNLLMTLRLWSS
modifications: CER29_T2A_HPV16_E7_TCR tandem cassette
B2: CER112: Tim4 binding and transmembrane domains, truncated Traf6 primary and NFAM1 secondary signaling domains; SEQ ID NO:128 (protein)
chain: MSKGLLLLWLVTELWWLYLTPAASEDTIIGFLGQPVTLPCHYLSWSQSRNSMCWGKGSCPNSKCNAELLRTDGTRIISRKSTKYTLLGKVQFGEVSLTISNTNRGDSGVYCCRIEVPGWFNDVKKNVRLELRRATTTKKPTTTTRPTTTPYVTTTTPELLPTTVMTTSVLPTTTPPQTLATTAFSTAVTTCPSTTPGSFSQETTKGSAFTTESETLPASNHSQRSMMTISTDIAVLRPTGSNPGILPSTSQLTTQKTTLTTSESLQKTTKSHQINSRQTILIIACCVGFVLMVLLFLAFLMSLLNCENSCGSSQSESDCCVAMASSCSAVTKDDSVGGTASTGNLSSSFMEEIQGYDVEFDPPLESKYECPICLMALREAVQTPCGHRFCKACIIKSIRDAGHKCPVDNEILLENQLFPDNFAKREILSLMVKCPNEGCLHKMELRHLEDHQAHCEFALMDCPQCQRPFQKFHINIHILKDCPRRQVSCDNCAASMAFEDKEIHDQNCPLANVICEYCNTILIREQMPNHYDLDCPTAPIPCTFSTFGCHEKMQRNHLARHLQENTQSHMRMLALWNKKRMRGPGKDPTRKCPDPRSASSPKQHPSESVYTALQRRETEVYACIENEDGSSPTAKQSPLSQERPHRFEDDGELNLVYENL
modifications: CER112 chimeric engulfment receptor
B3: CER110: Tim4 binding and transmembrane domains, truncated Traf6 primary and DAP12 secondary signaling domains; SEQ ID NO:125 (protein)
chain: MSKGLLLLWLVTELWWLYLTPAASEDTIIGFLGQPVTLPCHYLSWSQSRNSMCWGKGSCPNSKCNAELLRTDGTRIISRKSTKYTLLGKVQFGEVSLTISNTNRGDSGVYCCRIEVPGWFNDVKKNVRLELRRATTTKKPTTTTRPTTTPYVTTTTPELLPTTVMTTSVLPTTTPPQTLATTAFSTAVTTCPSTTPGSFSQETTKGSAFTTESETLPASNHSQRSMMTISTDIAVLRPTGSNPGILPSTSQLTTQKTTLTTSESLQKTTKSHQINSRQTILIIACCVGFVLMVLLFLAFLMSLLNCENSCGSSQSESDCCVAMASSCSAVTKDDSVGGTASTGNLSSSFMEEIQGYDVEFDPPLESKYECPICLMALREAVQTPCGHRFCKACIIKSIRDAGHKCPVDNEILLENQLFPDNFAKREILSLMVKCPNEGCLHKMELRHLEDHQAHCEFALMDCPQCQRPFQKFHINIHILKDCPRRQVSCDNCAASMAFEDKEIHDQNCPLANVICEYCNTILIREQMPNHYDLDCPTAPIPCTFSTFGCHEKMQRNHLARHLQENTQSHMRMLAYFLGRLVPRGRGAAEAATRKQRITETESPYQELQGQRSDVYSDLNTQRPYYK
modifications: CER110 chimeric engulfment receptor
B4: CER120: Tim4 binding and transmembrane domains, TLR1 primary and DAP12 secondary signaling domains; SEQ ID NO:147 (protein)
chain: MSKGLLLLWLVTELWWLYLTPAASEDTIIGFLGQPVTLPCHYLSWSQSRNSMCWGKGSCPNSKCNAELLRTDGTRIISRKSTKYTLLGKVQFGEVSLTISNTNRGDSGVYCCRIEVPGWFNDVKKNVRLELRRATTTKKPTTTTRPTTTPYVTTTTPELLPTTVMTTSVLPTTTPPQTLATTAFSTAVTTCPSTTPGSFSQETTKGSAFTTESETLPASNHSQRSMMTISTDIAVLRPTGSNPGILPSTSQLTTQKTTLTTSESLQKTTKSHQINSRQTILIIACCVGFVLMVLLFLAFLSYLDLPWYLRMVCQWTQTRRRARNIPLEELQRNLQFHAFISYSGHDSFWVKNELLPNLEKEGMQICLHERNFVPGKSIVENIITCIEKSYKSIFVLSPNFVQSEWCHYELYFAHHNLFHEGSNSLILILLEPIPQYSIPSSYHKLKSLMARRTYLEWPKEKSKRGLFWANLRAAINIKLTEQAKKYFLGRLVPRGRGAAEAATRKQRITETESPYQELQGQRSDVYSDLNTQRPYYK
modifications: CER120 protein

Columns and labels:
SCC152 cells = assay: Phagocytic activity of tandem expression cassette transduced CD8+ T cells; type: cell-based, human
Description: Phagocytic activity of tandem expression cassette transduced CD8+ T cells was detected by co-culturing tandem expression cassette transduced CD8+ T cells with SCC152 cells for 6 hours at a 1:1 ratio. Phagocytic events were visualized and quantified using KEYENCE BZ-X710 fluorescence microscope, 20X objective and hybrid capture software.

[1] = test system: H1975 lung adenocarcinoma cells; assay: LDH assay, H1975 cells, 48 hours co-culture with 1 μM Osimeritinib; type: cell-based; settings: E:T 1:1, 48 hours, CD4+ T cells
Source text: CER30 comprises a Tim4 binding domain, Tim4 transmembrane domain, and an engulfment signaling domain comprising a primary engulfment signaling domain comprising a TRAF2 signaling domain. CER30 has a polypeptide sequence as set forth in SEQ ID NO:96. CER110 has a polypeptide sequence of SEQ ID NO:125 and comprises a Tim4 binding domain, Tim4 transmembrane domain, and an engulfment signaling domain comprising a primary engulfment signaling domain comprising a TRAF6 signaling domain and a secondary engulfment signaling domain comprising a DAP12 signaling domain. CER112 has a polypeptide sequence of SEQ ID NO:128 and comprises a Tim4 binding domain, Tim4 transmembrane domain, and an engulfment signaling domain comprising a primary engulfment signaling domain comprising a TRAF6 signaling domain and a secondary engulfment signaling domain comprising a NFAM1 signaling domain. CER127 has a polypeptide sequence of SEQ ID NO:175 and comprises a Tim4 binding domain, Tim4 transmembrane domain, and an engulfment signaling domain comprising a primary engulfment signaling domain comprising a TRAF2 signaling domain and a secondary engulfment signaling domain comprising a TLR2 signaling domain. H1975 cells are more resistant to EGFR inhibitors, so Osimeritinib was used at slightly higher concentration. H1975 lung adenocarcinoma cells harboring an EGFR mutation were co-cultured with CER-expressing or mock-transduced (vector only) CD4+ T cells with 1 μM of Osimeritinib. After 48 hours of co-culture at a 1:1 effector:target cell ratio, T cells were washed away, and the number of viable H1975 cells was quantified using a calorimetric LDH assay (FIG. 57). Cell viability experiments were performed in triplicate and presented as % of control.

Molecule	phagocytosis of SCC152 cells (SCC152 cells; CD8+ T cells, 6 hours, 1:1 ratio)	dependence of engulfment of SCC152 cells on Racl (SCC152 cells; Racl inhibitor NSC23766 (50 μM), data not shown)	killing of H1975 cells (LDH) [1]
B1	capable of phagocytosing SCC152 cells	Racl-dependent manner	–
B2	–	–	synergistic killing of H1975 lung adenocarcinoma cells upon EGFR inhibition
B3	–	–	synergistic killing of H1975 lung adenocarcinoma cells upon EGFR inhibition
B4	–	–	synergistic killing of H1975 lung adenocarcinoma cells upon EGFR inhibition
